Laboratory results as given in patent US20210275657A1 (BIONTECH US, published 2021).

Legend:
HLA-B08:01 [1] = biological target: T1, HLA-B08:01 (human); assay: pMHC-I dissociation, 125I-b2m, 37C; experiment 2
T1 construct: Stability assay: E. coli-expressed biotinylated heavy chain with 125I-labelled b2m; MS: BAP-tagged HLA in HEK293T cells; Treated as one molecule

HLA-B08:01 [2] = biological target: T1, HLA-B08:01; assay: competition vs radiolabeled peptide on purified HLA; measured IC50
HLA-B08:01 [3] = biological target: T1, HLA-B08:01; assay: peptide-HLA stability, Example 9
HLA-B08:01 [4] = biological target: T1, HLA-B08:01; assay: pMHC-I dissociation, 125I-b2m, 37C; average of 2
HLA-B08:01 [5] = biological target: T1, HLA-B08:01; assay: pMHC-I dissociation, 125I-b2m, 37C; experiment 1
HLA-B07:02 [6] = biological target: T2, HLA-B07:02 (human); assay: peptide-HLA affinity, Example 9
T2 construct: Stability assay: E. coli-expressed biotinylated heavy chain with 125I-labelled b2m; MS: BAP-tagged HLA in HEK293T cells; Treated as one molecule

HLA-B07:02 [7] = biological target: T2, HLA-B07:02; assay: pMHC-I dissociation, 125I-b2m, 37C; experiment 2
HLA-B07:02 [8] = biological target: T2, HLA-B07:02; assay: competition vs radiolabeled peptide on purified HLA; measured IC50
HLA-B07:02 [9] = biological target: T2, HLA-B07:02; assay: competition vs radiolabeled peptide on purified HLA; IC50 corrected for peptide concentration
HLA-B07:02 [10] = biological target: T2, HLA-B07:02; assay: peptide-HLA stability, Example 9
HLA-B07:02 [11] = biological target: T2, HLA-B07:02; assay: pMHC-I dissociation, 125I-b2m, 37C; average of 2
HLA-B07:02 [12] = biological target: T2, HLA-B07:02; assay: pMHC-I dissociation, 125I-b2m, 37C; experiment 1
HLA-A24:02 [13] = biological target: T3, HLA-A24:02 (human); assay: peptide-HLA affinity, Example 9
T3 construct: Construct not described

HLA-A24:02 [14] = biological target: T3, HLA-A24:02; assay: peptide-HLA stability, Example 9
HLA-A03:01 [15] = biological target: T4, HLA-A03:01 (human); assay: peptide-HLA stability, Example 36
T4 construct: Construct not described

HLA-A01:01 [16] = biological target: T5, HLA-A01:01 (human); assay: peptide-HLA stability, Example 36
T5 construct: Construct not described

HLA-A11:01 [17] = biological target: T6, HLA-A11:01 (human); assay: peptide-HLA affinity, Example 36
T6 construct: Construct not described

HLA-A03:01 [18] = biological target: T4, HLA-A03:01; assay: peptide-HLA affinity, Example 36
HLA-A01:01 [19] = biological target: T5, HLA-A01:01; assay: peptide-HLA affinity, Example 36
HLA-A24:02 [20] = biological target: T3, HLA-A24:02; assay: peptide-HLA stability, Example 36
HLA-A24:02 [21] = biological target: T3, HLA-A24:02; assay: peptide-HLA affinity, Example 36
HLA-A11:01 [22] = biological target: T6, HLA-A11:01; assay: peptide-HLA affinity, Example 9
HLA-A03:01 [23] = biological target: T4, HLA-A03:01; assay: peptide-HLA affinity, Example 9
HLA-A11:01 [24] = biological target: T6, HLA-A11:01; assay: peptide-HLA stability, Example 9
HLA-A03:01 [25] = biological target: T4, HLA-A03:01; assay: peptide-HLA stability, Example 9
HLA-A02:01 [26] = biological target: T7, HLA-A02:01 (human); assay: peptide-HLA affinity, Example 9
T7 construct: Stability assay: E. coli-expressed biotinylated heavy chain with 125I-labelled b2m

HLA-A02:01 [27] = biological target: T7, HLA-A02:01; assay: peptide-HLA stability, Example 9
HLA-A02:01 [28] = biological target: T7, HLA-A02:01; assay: pMHC-I dissociation, 125I-b2m, 37C; experiment 2
HLA-A02:01 [29] = biological target: T7, HLA-A02:01; assay: competition vs radiolabeled peptide on purified HLA; measured IC50
HLA-A02:01 [30] = biological target: T7, HLA-A02:01; assay: competition vs radiolabeled peptide on purified HLA; IC50 corrected for peptide concentration
HLA-A02:01 [31] = biological target: T7, HLA-A02:01; assay: pMHC-I dissociation, 125I-b2m, 37C; average of 2
HLA-A02:01 [32] = biological target: T7, HLA-A02:01; assay: pMHC-I dissociation, 125I-b2m, 37C; experiment 1

B1: FLKAESKIMF (peptide)
peptide: FLKAESKIMF
- half-life (HLA-B08:01 [1]): 0 h
- IC50 (HLA-B08:01 [2]): 90 nM
- Observed MHC stability (HLA-B08:01 [3]): 0 h
- half-life (HLA-B08:01 [4]): 0 h
- half-life (HLA-B08:01 [5]): 0 min

B2: KPKRDGYMFL (peptide)
peptide: KPKRDGYMFL
- Observed MHC affinity (HLA-B07:02 [6]): 98 nM
- half-life (HLA-B07:02 [7]): 3.3 h
- IC50 (HLA-B07:02 [8]): 115 nM
- IC50 (HLA-B07:02 [9]): 98.1 nM
- Observed MHC stability (HLA-B07:02 [10]): 3.3 h
- half-life (HLA-B07:02 [11]): 3.3 h
- half-life (HLA-B07:02 [12]): 3.3 h

B3: MFLKAESKI (peptide)
peptide: MFLKAESKI
- Observed MHC affinity (HLA-A24:02 [13]): 332 nM
- Observed MHC stability (HLA-A24:02 [14]): 0.2 h

B4: LHFCRSSIM (peptide)
peptide: LHFCRSSIM
- half-life (HLA-B08:01 [1]): 0 h
- IC50 (HLA-B08:01 [2]): 167 nM
- Observed MHC stability (HLA-B08:01 [3]): 0 h
- half-life (HLA-B08:01 [4]): 0 h
- half-life (HLA-B08:01 [5]): 0 min

B5: YMANGSLLNY (peptide)
peptide: YMANGSLLNY
notes: also called BTK C481S mutant peptide
- Stability (1/2 hr) (HLA-A03:01 [15]): 0.279 h
- Stability (1/2 hr) (HLA-A01:01 [16]): 0.866 h
- Affinity (HLA-A11:01 [17]): 974 nM
- Affinity (HLA-A03:01 [18]): 95.9 nM
- Affinity (HLA-A01:01 [19]): 13.2 nM

B6: IMKPKRDGYM (peptide)
peptide: IMKPKRDGYM
- half-life (HLA-B08:01 [1]): 0.4 h
- IC50 (HLA-B08:01 [2]): 40.2 nM
- Observed MHC stability (HLA-B08:01 [3]): 0.4 h
- half-life (HLA-B08:01 [4]): 0.4 h
- half-life (HLA-B08:01 [5]): 24 min

B7: ESKIMFATL (peptide)
peptide: ESKIMFATL
- half-life (HLA-B08:01 [1]): 1.6 h
- IC50 (HLA-B08:01 [2]): 23.3 nM
- Observed MHC stability (HLA-B08:01 [3]): 1.3 h
- half-life (HLA-B08:01 [4]): 1.3 h
- half-life (HLA-B08:01 [5]): 60 min

B8: EYMANGSLL (peptide)
peptide: EYMANGSLL
notes: as for B5
- Stability (1/2 hr) (HLA-A24:02 [20]): 5.72 h
- Affinity (HLA-A24:02 [21]): 4.96 nM

B9: VLWTTPPLQH (peptide)
peptide: VLWTTPPLQH
- Observed MHC affinity (HLA-A11:01 [22]): 4540 nM
- Observed MHC affinity (HLA-A03:01 [23]): 16 nM
- Observed MHC stability (HLA-A11:01 [24]): 0 h
- Observed MHC stability (HLA-A03:01 [25]): 0.3 h

B10: QPVLWTTPPL (peptide)
peptide: QPVLWTTPPL
- Observed MHC affinity (HLA-B07:02 [6]): 109 nM
- Observed MHC stability (HLA-B07:02 [10]): 1.4 h

B11: GPPARVPAV (peptide)
peptide: GPPARVPAV
- Observed MHC affinity (HLA-B07:02 [6]): 221 nM
- half-life (HLA-B07:02 [7]): 1.8 h
- IC50 (HLA-B07:02 [8]): 282 nM
- IC50 (HLA-B07:02 [9]): 221 nM
- Observed MHC stability (HLA-B07:02 [10]): 1.6 h
- half-life (HLA-B07:02 [11]): 1.6 h
- half-life (HLA-B07:02 [12]): 1.5 h

B12: VLPEPHLAL (peptide)
peptide: VLPEPHLAL
- Observed MHC affinity (HLA-A02:01 [26]): 16 nM
- Observed MHC stability (HLA-A02:01 [27]): 1.1 h

B13: FLKAESKIM (peptide)
peptide: FLKAESKIM
- half-life (HLA-B08:01 [1]): 1.5 h
- Observed MHC stability (HLA-B08:01 [3]): 1.2 h
- half-life (HLA-B08:01 [4]): 1.2 h
- half-life (HLA-B08:01 [5]): 48 min

B14: AIQPVLWTT (peptide)
peptide: AIQPVLWTT
- Observed MHC affinity (HLA-A02:01 [26]): 8 nM
- Observed MHC stability (HLA-A02:01 [27]): 1.5 h

B15: TLQRSSLWCL (peptide)
peptide: TLQRSSLWCL
- Observed MHC affinity (HLA-A02:01 [26]): 118 nM
- half-life (HLA-A02:01 [28]): 30 min
- IC50 (HLA-A02:01 [29]): 281 nM
- IC50 (HLA-A02:01 [30]): 118 nM
- Observed MHC stability (HLA-A02:01 [27]): 0.5 h
- half-life (HLA-A02:01 [31]): 30 min
- half-life (HLA-A02:01 [32]): 30 min

B16: KIMFATLQR (peptide)
peptide: KIMFATLQR
- Observed MHC affinity (HLA-A11:01 [22]): 23 nM
- Observed MHC affinity (HLA-A03:01 [23]): 3 nM
- Observed MHC stability (HLA-A11:01 [24]): 8.9 h
- Observed MHC stability (HLA-A03:01 [25]): 5.6 h

B17: MANGSLLNY (peptide)
peptide: MANGSLLNY
notes: as for B5
- Stability (1/2 hr) (HLA-A03:01 [15]): 0.238 h
- Stability (1/2 hr) (HLA-A01:01 [16]): 0.216 h
- Affinity (HLA-A11:01 [17]): 536 nM
- Affinity (HLA-A03:01 [18]): 35.6 nM
- Affinity (HLA-A01:01 [19]): 439 nM

B18: YMFLKAESK (peptide)
peptide: YMFLKAESK
- Observed MHC affinity (HLA-A11:01 [22]): 1730 nM
- Observed MHC affinity (HLA-A03:01 [23]): 80 nM
- Observed MHC stability (HLA-A11:01 [24]): 0 h
- Observed MHC stability (HLA-A03:01 [25]): 0.3 h

B19: KPKRDGYMF (peptide)
peptide: KPKRDGYMF
- Observed MHC affinity (HLA-B07:02 [6]): 28 nM
- half-life (HLA-B07:02 [7]): 9 h
- IC50 (HLA-B07:02 [8]): 28.2 nM
- IC50 (HLA-B07:02 [9]): 28.2 nM
- Observed MHC stability (HLA-B07:02 [10]): 8.6 h
- half-life (HLA-B07:02 [11]): 8.6 h
- half-life (HLA-B07:02 [12]): 8.3 h

B20: FATLQRSSL (peptide)
peptide: FATLQRSSL
- Observed MHC affinity (HLA-B07:02 [6]): 14 nM
- half-life (HLA-B07:02 [7]): 0.6 h
- half-life (HLA-B08:01 [1]): 0 h
- IC50 (HLA-B07:02 [8]): 14 nM
- IC50 (HLA-B08:01 [2]): 27.5 nM
- IC50 (HLA-B07:02 [9]): 14 nM
- Observed MHC stability (HLA-B07:02 [10]): 0.7 h
- Observed MHC stability (HLA-B08:01 [3]): 0 h
- half-life (HLA-B07:02 [11]): 0.7 h
- half-life (HLA-B08:01 [4]): 0 h
- half-life (HLA-B07:02 [12]): 0.7 h
- half-life (HLA-B08:01 [5]): 0 min

B21: MFATLQRSSL (peptide)
peptide: MFATLQRSSL
- half-life (HLA-B07:02 [7]): 0 h
- half-life (HLA-B08:01 [1]): 0 h
- IC50 (HLA-B07:02 [8]): 350 nM
- IC50 (HLA-B07:02 [9]): 267 nM
- Observed MHC stability (HLA-B07:02 [10]): 0 h
- Observed MHC stability (HLA-B08:01 [3]): 0 h
- half-life (HLA-B07:02 [11]): 0 h
- half-life (HLA-B08:01 [4]): 0 h
- half-life (HLA-B07:02 [12]): 0 h
- half-life (HLA-B08:01 [5]): 0 min

B22: EPHLALQPL (peptide)
peptide: EPHLALQPL
- Observed MHC stability (HLA-B07:02 [10]): 7.2 h
- Observed MHC stability (HLA-B08:01 [3]): 0 h
